Data reported in patent publication US20250376507A1, “NOVEL TUMOR ANTIGEN-TARGETING ANTICANCER AGENT” (INDUSTRY FOUNDATION OF CHONNAM NATIONAL UNIVERSITY, priority 2022, published 2025).

What was measured:
[1] = molecular target: T1, recombinant calreticulin protein (rCRT) (Homo sapiens, UniProt P27797); experiment: Binding affinity of recombinant proteins for CRT by ELISA; details: for Kd: ELISA, read-out: dissociation constant (Kd) for CRT; for affinity for CRT relative to single CRT3/CRT4 monobody: compared with monobodies of Zhang et al. 2021
T1 construct: purchased Abcam
T1 sequence (P27797 18-417): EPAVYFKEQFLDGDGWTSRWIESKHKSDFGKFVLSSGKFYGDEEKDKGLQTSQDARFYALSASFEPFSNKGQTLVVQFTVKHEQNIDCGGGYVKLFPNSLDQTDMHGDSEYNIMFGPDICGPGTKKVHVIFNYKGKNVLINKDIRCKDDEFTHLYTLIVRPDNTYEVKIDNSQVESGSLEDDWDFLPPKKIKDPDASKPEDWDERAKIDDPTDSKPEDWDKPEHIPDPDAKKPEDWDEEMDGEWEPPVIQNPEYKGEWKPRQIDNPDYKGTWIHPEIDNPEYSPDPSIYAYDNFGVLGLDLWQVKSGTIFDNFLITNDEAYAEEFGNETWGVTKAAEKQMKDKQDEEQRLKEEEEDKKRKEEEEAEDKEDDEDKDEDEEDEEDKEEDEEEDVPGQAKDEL
Experimental: The affinity of the recombinant protein for CRT was measured by enzyme-linked immunosorbent analysis (ELISA) (J. D. Beatty, et al., Journal of immunological methods 100(1-2), 173-179, 1987). In brief, 100 μL of PASylated CRT-targeted L-ASNases coated onto 96-well microplates (0-10 μM/well) overnight at 4° C. Unbound proteins were removed by aspiration from the wells and 100 μL of 10 μM rCRT proteins were added to each well and incubated for 2 h at room temperature. After rCRTs were removed, rabbit anti-CRT antibodies (diluted to 1:500) were added to each well and incubated for 2 h at room temperature. The antibodies were removed by aspiration, and the wells were washed five times with T-PBS. Then, biotin-conjugated anti-rabbit secondary antibodies (diluted to 1:1000) were added and incubated for 1 h. After washing with T-PBS, 100 μL of avidin-HRP (diluted to 1:250) was added to each well and incubated for 30 minutes at room temperature. After aspiration and washing five times, 100 μL of 1×3,3′,5,5′-tetramethylbenzidine (TMB) buffer (Thermo Fisher Scientific, USA) was added to each well to form a […] reaction product. After 15 minutes, 50 μL of 0.5 M H2SO4 solution was added to each well to stop the chromogenic reaction. The amount of colorimetric product was evaluated as the optical density value at 450 nm (OD450) by a SpectraMax M2 microtiter plate reader (Molecular Devices, USA).

ecto-CRT on CT-26 cells = molecular target: T2, ecto-CRT on CT-26 cells (Mus musculus, UniProt P14211); experiment: Flow cytometry binding to anticancer-agent-treated CT-26 cells; format: cell-based; details: for binding to cells: 100 nM protein; for binding after pretreatment with anti-CRT antibodies: CT-26 cells treated with DOX or MTX
T2 sequence (P14211 18-416): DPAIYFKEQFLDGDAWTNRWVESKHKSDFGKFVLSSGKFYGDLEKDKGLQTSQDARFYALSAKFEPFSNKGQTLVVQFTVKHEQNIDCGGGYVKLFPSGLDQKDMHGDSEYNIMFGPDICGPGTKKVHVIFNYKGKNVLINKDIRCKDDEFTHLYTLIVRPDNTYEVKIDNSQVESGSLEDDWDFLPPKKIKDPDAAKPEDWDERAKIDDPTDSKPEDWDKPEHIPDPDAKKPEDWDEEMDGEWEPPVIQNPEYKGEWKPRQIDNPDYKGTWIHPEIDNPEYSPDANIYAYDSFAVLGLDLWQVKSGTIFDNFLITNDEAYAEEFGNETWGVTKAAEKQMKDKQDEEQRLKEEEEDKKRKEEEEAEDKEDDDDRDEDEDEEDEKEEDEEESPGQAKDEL
Experimental: (§1) Cells were cultured at 37° C. in DMEM medium supplemented with 10% FBS and 100 U of streptomycin/penicillin in an atmosphere of 5% CO2. Cells were treated with each anticancer drug [3 μM methotrexate (MTX), 25 μM […] (DOX), or 15 μM gemcitabine (GEM)] to induce apoptosis (Y. Zhang, et al., Cancers, 13 (11), 2801, 2021). After 4 h of incubation, the cells were scraped and detached from the plate. The cells (10^5) were fixed with 1% PFA for 15 min and then treated with 100 nM of PASylated recombinant proteins for 1 h on ice. After washing five times with cold PBS buffer containing 0.1% Tween-20 (T-PBS), the cells were incubated with anti-His tagged monobodies (diluted to 1:1000) for 1 h and then treated with Alexa Fluor 488-conjugated secondary antibodies (5 μg/mL) for 1 h. Fluorescence signals were detected by FACSCanto II Flow Cytometer (BD Biosciences, USA). For blocking experiments, cells were first incubated with anticancer agents for 4 h and fixed with 1% PFA. Cells were then incubated with anti-CRT antibodies (diluted to1: 400) for 1 h to mask ecto-CRT. Cells were stained with PASylated recombinant proteins and followed the same procedure as described above.

ecto-CRT on MC-38 cells [2] = molecular target: T3, ecto-CRT on MC-38 cells (Mus musculus, UniProt P14211); experiment: Flow cytometry binding to anticancer-agent-treated MC-38 cells; format: cell-based; set-up: endogenous in cells; host or cells: MC-38 mouse colon cancer cells (in culture); details: for binding to cells: 100 nM protein; for binding after pretreatment with anti-CRT antibodies: MC-38 cells treated with DOX or MTX
T3 sequence (P14211 18-416): T2 sequence (P14211 18-416)
Experimental: as §1

ecto-CRT on MC-38 cells [3] = molecular target: T3, ecto-CRT on MC-38 cells; experiment: Confocal immunofluorescence staining of MC-38 cells; format: cell-based; set-up: endogenous in cells; host or cells: CT-26 and MC-38 mouse colon cancer cells (in culture, or CT-26 tumors in mice)
Experimental: PASylated CRT-targeted L-ASNases bound to ecto-CRT on cells were visualized by confocal immunofluorescence microscopy with reference to the prior art (Y. Zhang, et al., Cancers, 13(11), 2801, 2021). After overnight incubation in a cover-glass, CT-26 and MC-38 cells (104) were treated with anticancer agents for 4 h at 37° C. The cells were then fixed with 1% PFA for 15 min, stained with 100 nM PASylated recombinant proteins for 1 h on ice, and treated with anti-His tagged monobodies (diluted to 1:1000) and Alexa Fluor 488-conjugated secondary antibody for 1 h (5 μg/mL). Cell membranes were stained with Alexa Fluor 555-conjugated wheat germ agglutinin (WGA) (diluted to 1:5000). Between each step, samples were washed with cold T-PBS. Finally, the cells were incubated with 4′,6-diamidino-2-phenylindole (DAPI) (Thermo Fisher Scientific, USA) to stain the nuclei. Immunofluorescence signals were imaged using an LSM510 confocal microscope (ZEISS, Jena, Germany) and data were analyzed with ZEN-LSM imaging software (ZEISS, Jena, Germany).

[4] = CT-26 cells treated with DOX and MTX
[5] = CT-26 cells with GEM or PBS treatment
[6] = MC-38 cells treated with DOX and MTX
[7] = MC-38 cells with GEM or PBS treatment
[8] = MC-38 cells treated with DOX or MTX

B1: CRT3LP: PASylated L-ASNase fused with CRT-targeting CRT3 monobody at N-terminus and PAS200 tag plus His6 tag at C-terminus (protein)
chain: MASVSDVPRDLEVVAATPTSLLISWKLGFFKRYYRITYGETGGNSPVQEFTVPGSKSTATISGLKPGVDYTITVYAVTGQPMYGQPMYPISINYRTSGGGGSGGGGSEFLPNITILATGGTIAGGGDSATKSNYTAGKVGVENLVNAVPQLKDIANVKGEQVVNIGSQDMNDDVWLTLAKKINTDCDKTDGFVITHGTDTMEETAYFLDLTVKCDKPVVMVGAMRPSTSMSADGPFNLYNAVVTAADKASANRGVLVVMNDTVLDGRDVTKTNTTDVATFKSVNYGPLGYIHNGKIDYQRTPARKHTSDTPFDVSKLNELPKVGIVYNYANASDLPAKALVDAGYDGIVSAGVGNGNLYKTVFDTLATAAKNGTAVVRSSRVPTGATTQDVEVDDAKYGFVASGTLNPQKARVLLQLALTQTKDPQQIQQIFNQYGSSGGGGSGGGGSASPAAPAPASPAAPAPSAPAASPAAPAPASPAAPAPSAPAASPAAPAPASPAAPAPSAPAASPAAPAPASPAAPAPSAPAASPAAPAPASPAAPAPSAPAASPAAPAPASPAAPAPSAPAASPAAPAPASPAAPAPSAPAASPAAPAPASPAAPAPSAPAASPAAPAPASPAAPAPSAPAASPAAPAPASPAAPAPSAPAAGSHHHHHH
B1 was tested, and the Kd [1] was 2.07 ± 0.173 nM, the “affinity for CRT relative to single CRT3/CRT4 monobody” value [1] was “four times higher” and the binding to cells (ecto-CRT on CT-26 cells; [4]) was “efficiently bound”. For the same molecule, the “binding after pretreatment with anti-CRT antibodies” value (shortened to “binding after pretreatment”) (ecto-CRT on CT-26 cells) was “significantly inhibited”, the binding to cells (ecto-CRT on CT-26 cells; [5]) was “not” and the binding to cells (ecto-CRT on MC-38 cells [2]; [6]) was “efficiently bound”. The “binding after pretreatment” value (ecto-CRT on MC-38 cells [2]) was “significantly inhibited”, the binding to cells (ecto-CRT on MC-38 cells [2]; [7]) was “not” and the “immunofluorescence staining, binding to cells” value (“immunofluorescence staining” below) (ecto-CRT on MC-38 cells [3]; [8]) was “only bound”. The “immunofluorescence staining” value (ecto-CRT on MC-38 cells [3]; MC-38 cells treated with GEM) was “not”.

B2: CRT4LP: PASylated L-ASNase fused with CRT-targeting CRT4 monobody at N-terminus and PAS200 tag plus His6 tag at C-terminus (protein)
chain: MASVSDVPRDLEVVAATPTSLLISWGQPMYGQPMYYYRITYGETGGNSPVQEFTVPGSKSTATISGLKPGVDYTITVYAVTKLGFFKRPISINYRTSGGGGSGGGGSEFLPNITILATGGTIAGGGDSATKSNYTAGKVGVENLVNAVPQLKDIANVKGEQVVNIGSQDMNDDVWLTLAKKINTDCDKTDGFVITHGTDTMEETAYFLDLTVKCDKPVVMVGAMRPSTSMSADGPFNLYNAVVTAADKASANRGVLVVMNDTVLDGRDVTKTNTTDVATFKSVNYGPLGYIHNGKIDYQRTPARKHTSDTPFDVSKLNELPKVGIVYNYANASDLPAKALVDAGYDGIVSAGVGNGNLYKTVFDTLATAAKNGTAVVRSSRVPTGATTQDVEVDDAKYGFVASGTLNPQKARVLLQLALTQTKDPQQIQQIFNQYGSSGGGGSGGGGSASPAAPAPASPAAPAPSAPAASPAAPAPASPAAPAPSAPAASPAAPAPASPAAPAPSAPAASPAAPAPASPAAPAPSAPAASPAAPAPASPAAPAPSAPAASPAAPAPASPAAPAPSAPAASPAAPAPASPAAPAPSAPAASPAAPAPASPAAPAPSAPAASPAAPAPASPAAPAPSAPAASPAAPAPASPAAPAPSAPAAGSHHHHHH
B2 was tested, and the Kd [1] was 2.3 ± 0.166 nM, the “affinity for CRT relative to single CRT3/CRT4 monobody” value [1] was “four times higher” and the binding to cells (ecto-CRT on CT-26 cells; [4]) was “efficiently bound”. For the same molecule, the “binding after pretreatment” value (ecto-CRT on CT-26 cells) was “significantly inhibited”, the binding to cells (ecto-CRT on CT-26 cells; [5]) was “not” and the binding to cells (ecto-CRT on MC-38 cells [2]; [6]) was “efficiently bound”. For the same molecule, the “binding after pretreatment” value (ecto-CRT on MC-38 cells [2]) was “significantly inhibited”, the binding to cells (ecto-CRT on MC-38 cells [2]; [7]) was “not” and the “immunofluorescence staining” value (ecto-CRT on MC-38 cells [3]; [8]) was “only bound”. The “immunofluorescence staining” value (ecto-CRT on MC-38 cells [3]; MC-38 cells treated with GEM) was “not”.
